# B1: His6-tagged Tup12 (natural protein)
# chain: MATSNVSSRVNELLEAVKKEFEDICQKTKTVEAQKDDFEYKAMISAQINEMALMKQTVMDLEMQQSKVKDRYEEEITSLKAQLEARRKEIASGVVPQSSKTKHGRNSVSFGKYGNAGPFNSDNSSKPLILNNGSSGGTPKNLRSPAIDSDGTVLAPIQTSNVDLGSQYYSSPHVRPAVGATMAGSAMRTFPSNLPLGHPPPPSDSANSSVTPIAAPLVVNGKVSGNPPYPAEIIPTSNVPNREEKDWTVTSNVPNKEPPISVQLLHTLEHTSVICYVRFSADGKFLATGCNRAAMVFNVETGKLITLLQEESSKREGDLYVRSVAFSPDGKYLATGVEDQQIRIWDIAQKRVYRLLTGHEQEIYSLDFSKDGKTLVSGSGDRTVCLWDVEAGEQKLILHTDDGVTTVMFSPDGQFIAAGSLDKVIRIWTSSGTLVEQLHGHEESVYSVAFSPDGKYLVSGSLDNTIKLWELQCVSNVAPSMYKEGGICKQTFTGHKDFILSVTVSPDGKWIISGSKDRTIQFWSPDSPHSQLTLQGHNNSVISVAVSPNGHCFATGSGDLRARIWSYEDL
# B2: His6-tagged Tup11 (natural protein)
# chain: MASVEDATKVQEMLDALKAEYNALAHHSFASKARGNDYESSMIQSQIQEIEAFRKTVDDMYEKQKSIRETYEKDINKLKRELEELGVEANTASYRNRGERSELAASNNQVTHIDQEHPSQTKSTSQPPSNHLPAFQQIPPIHQSAYPQNNVAEVLMPPIPPSVEASSGQNFNQGIASQNPAISTSNLPSTTPLYIPPVNYGANQVSQQPNPQLPGVSNYYNPSATSKPAVNVQPPRIPTKATPSAEPSMTASANAGSISQAGPDGEYQGREQIAPVSDTEAARKTTSQSWYVTYNPACKRVFNINLVHTLEHPSVVCCVKFSNNGKYLATGCNQAANVFDVQTGKKLFTLHEESPDPSRDLYVRTIAFSPDGKYLVTGTEDRQIKLWDLSTQKVRYVFSGHEQDIYSLDFSHNGRFIVSGSGDRTARLWDVETGQCILKLEIENGVTAIAISPNDQFIAVGSLDQIIRVWSVSGTLVERLEGHKESVYSIAFSPDSSILLSGSLDKTIKVWELQATRSVGLSAIKPEGICKATYTGHTDFVLSVAVSPDSRWGLSGSKDRSMQFWDLQTGQSYLTCQGHKNSVISVCFSPDGRQFASGSGDLRARIWSIDPASP
# Target: GST-cLkh1^ΔLA (LAMMER motif-deleted Lkh1 catalytic domain) (S. pombe)
# Test: pull-down
row,Binder,percent of the substrate-binding activity of GST-cLkh1 and GST-cLkh1^K391R [%]
1,B1,30
2,B2,30

# Reference: article PMC2859543
